Assay results taken from ChEMBL document CHEMBL1129993, “Synthesis and biological characterization of 1,4,5,6-tetrahydropyrimidine and 2-amino-3,4,5,6-tetrahydropyridine derivatives as selective m1 agonists” (J Med Chem, 1997).

How the values were obtained:
[1] = substrate: COC(=O)C1CN=CNC1; settings: Mus musculus; A9L
[2] = substrate: C[N+](C)(C)CCOC(N)=O; settings: Mus musculus; A9L

B1: Muscarinic acetylcholine receptor M2 (Mus musculus), Q9ERZ4 (protein)
chain: MNNSTNSSNNGLAITSPYKTFEVVFIVLVAGSLSLVTIIGNILVMVSIKVNRHLQTVNNYFLFSLACADLIIGVFSMNLYTLYTVIGYWPLGPVVCDLWLALDYVVSNASVMNLLIISFDRYFCVTKPLTYPVKRTTKMAGMMIAAAWVLSFILWAPAILFWQFIVGVRTVEDGECYIQFFSNAAVTFGTAIAAFYLPVIIMTVLYWHISRASKSRIKKEKKEPVANQDPVSPSLVQGRIVKPNNNNMPGGDGGLEHNKIQNGKAPRDGGTENCVQGEEKESSNDSTSVSAVASNMRDDEITQDENTVSTSLGHSKDDNSRQTCIKIVTKTQKGDACTPTSTTVELVGSSGQNGDEKQNIVARKIVKMTKQPAKKKPPPSREKKVTRTILAILLAFIITWAPYNVMVLINTFCAPCIPNTVWTIGYWLCYINSTINPACYALCNATFKKTFKHLLMCHYKNIGATR
B1 showed a Km [1] of 0.014 µM and a Km [2] of 0.046 µM.
